Laboratory results: publication doi:10.1101/2023.12.15.571945

Biological target: GFP-Rab13-2 (N. benthamiana)
Assay: co-IP

level of binding (α-FLAG/α-GFP) with RFP-Pc12 expressed: 1.3
Substance: REP-3xFLAG (Rab escort protein 1) (natural protein)
